# Biological target: Alexa Fluor 647-labeled NY-ESO-1-MHC tetramer
# Assay: flow cytometry of transfected Jurkat NFAT-luciferase cells stained with Alexa Fluor 647-labeled NY-ESO-1-MHC tetramer; x axis Alexa 647-A; Empty Vector gate 0.46
row,Binder,NYESO+
1,α-CD28 + β-41BB (Linker GGS) (TCR) TCR alpha: KQEVTQIPAALSVPEGENLVLNCSFTDSAIYNLQWFRQDPGKGLTSLLLIQSSQREQTSGRLNASLDKSSGRSTLYIAASQPGDSATYLCAVRPLYGGSYIPTFGRGTSLIVHPYIQNPDPAVYQLRDSKSSDKSVCLFTDFDSQTNVSQSKDSDVYITDKCVLDMRSMDFKSNSAVAWSNKSDFACANAFNNSIIPEDTFFPSPESSCDVKLVEKSFETDTNLNFQNLSVIGFRILLLKVAGFNLLMTLRLWSSGGSRSKRSRLLHSDYMNMTPRRPGPTRKHYQPYAPPRDFAAYRS TCR beta: NAGVTQTPKFQVLKTGQSMTLQCAQDMNHEYMSWYRQDPGMGLRLIHYSVGAGITDQGEVPNGYNVSRSTTEDFPLRLLSAAPSQTSVYFCASSYVGNTGELFFGEGSRLTVLEDLKNVFPPEVAVFEPSEAEISHTQKATLVCLATGFYPDHVELSWWVNGKEVHSGVCTDPQPLKEQPALNDSRYCLSSRLRVSATFWQNPRNHFRCQVQFYGLSENDEWTQDRAKPVTQIVSAEAWGRADCGFTSESYQQGVLSA,52.3%
2,α-CD28 + β (Linker GGS) (TCR) TCR alpha: KQEVTQIPAALSVPEGENLVLNCSFTDSAIYNLQWFRQDPGKGLTSLLLIQSSQREQTSGRLNASLDKSSGRSTLYIAASQPGDSATYLCAVRPLYGGSYIPTFGRGTSLIVHPYIQNPDPAVYQLRDSKSSDKSVCLFTDFDSQTNVSQSKDSDVYITDKCVLDMRSMDFKSNSAVAWSNKSDFACANAFNNSIIPEDTFFPSPESSCDVKLVEKSFETDTNLNFQNLSVIGFRILLLKVAGFNLLMTLRLWSSGGSRSKRSRLLHSDYMNMTPRRPGPTRKHYQPYAPPRDFAAYRS TCR beta: NAGVTQTPKFQVLKTGQSMTLQCAQDMNHEYMSWYRQDPGMGLRLIHYSVGAGITDQGEVPNGYNVSRSTTEDFPLRLLSAAPSQTSVYFCASSYVGNTGELFFGEGSRLTVLEDLKNVFPPEVAVFEPSEAEISHTQKATLVCLATGFYPDHVELSWWVNGKEVHSGVCTDPQPLKEQPALNDSRYCLSSRLRVSATFWQNPRNHFRCQVQFYGLSENDEWTQDRAKPVTQIVSAEAWGRADCGFTSESYQQGVLSA,64.5%
3,α-CD28 + β-CD28 (Linker GGS) (TCR) TCR alpha: KQEVTQIPAALSVPEGENLVLNCSFTDSAIYNLQWFRQDPGKGLTSLLLIQSSQREQTSGRLNASLDKSSGRSTLYIAASQPGDSATYLCAVRPLYGGSYIPTFGRGTSLIVHPYIQNPDPAVYQLRDSKSSDKSVCLFTDFDSQTNVSQSKDSDVYITDKCVLDMRSMDFKSNSAVAWSNKSDFACANAFNNSIIPEDTFFPSPESSCDVKLVEKSFETDTNLNFQNLSVIGFRILLLKVAGFNLLMTLRLWSSGGSRSKRSRLLHSDYMNMTPRRPGPTRKHYQPYAPPRDFAAYRS TCR beta: NAGVTQTPKFQVLKTGQSMTLQCAQDMNHEYMSWYRQDPGMGLRLIHYSVGAGITDQGEVPNGYNVSRSTTEDFPLRLLSAAPSQTSVYFCASSYVGNTGELFFGEGSRLTVLEDLKNVFPPEVAVFEPSEAEISHTQKATLVCLATGFYPDHVELSWWVNGKEVHSGVCTDPQPLKEQPALNDSRYCLSSRLRVSATFWQNPRNHFRCQVQFYGLSENDEWTQDRAKPVTQIVSAEAWGRADCGFTSESYQQGVLSATILYEILLGKATLYAVLVSALVLMAMVKRKDSRGGGSRSKRSRLLHSDYMNMTPRRPGPTRKHYQPYAPPRDFAAYRS,53.6%

# Reference: patent US20220389075A1
